First the molecules themselves.
T1: hZwint-1 (human, UniProt O95229 1-277)
T1 sequence (looked up): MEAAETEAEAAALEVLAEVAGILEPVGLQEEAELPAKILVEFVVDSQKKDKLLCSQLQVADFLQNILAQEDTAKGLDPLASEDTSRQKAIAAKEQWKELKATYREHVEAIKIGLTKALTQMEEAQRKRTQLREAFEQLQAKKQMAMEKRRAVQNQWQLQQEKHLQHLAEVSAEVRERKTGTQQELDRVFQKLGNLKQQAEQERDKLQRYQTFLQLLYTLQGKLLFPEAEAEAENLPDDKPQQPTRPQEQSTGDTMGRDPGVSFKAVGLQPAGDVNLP

B1: hZW10 DI69AA (natural protein, human, UniProt O43264 1-779, looked up)
chain: MASFVTEVLAHSGRLEKEDLGTRISRLTRRVEEIKGEVCNMISKKYSEFLPSMQSAQGLITQVDKLSEAADLLKSRIESEVRRDLHVSTGEFTDLKQQLERDSVVLSLLKQLQEFSTAIEEYNCALTEKKYVTGAQRLEEAQKCLKLLKSRKCFDLKILKSLSMELTIQKQNILYHLGEEWQKLIVWKFPPSKDTSSLESYLQTELHLYTEQSHKEEKTPMPPISSVLLAFSVLGELHSKLKSFGQMLLKYILRPLASCPSLHAVIESQPNIVIIRFESIMTNLEYPSPSEVFTKIRLVLEVLQKQLLDLPLDTDLENEKTSTVPLAEMLGDMIWEDLSECLIKNCLVYSIPTNSSKLQQYEEIIQSTEEFENALKEMRFLKGDTTDLLKYARNINSHFANKKCQDVIVAARNLMTSEIHNTVKIIPDSKINVPELPTPDEDNKLEVQKVSNTQYHEVMNLEPENTLDQHSFSLPTCRISESVKKLMELAYQTLLEATTSSDQCAVQLFYSVRNIFHLFHDVVPTYHKENLQKLPQLAAIHHNNCMYIAHHLLTLGHQFRLRLAPILCDGTATFVDLVPGFRRLGTECFLAQMRAQKGELLERLSSARNFSNMDDEENYSAASKAVRQVLHQLKRLGIVWQDVLPVNIYCKAMGTLLNTAISEVIGKITALEDISTEDGDRLYSLCKTVMDEGPQVFAPLSEESKNKKYQEEVPVYVPKWMPFKELMMMLQASLQEIGDRWADGKGPLAAAFSSSEVKALIRALFQNTERRAAALAKIK
B2: hZW10 SE67AA (natural protein, human, UniProt O43264 1-779, looked up)
chain: MASFVTEVLAHSGRLEKEDLGTRISRLTRRVEEIKGEVCNMISKKYSEFLPSMQSAQGLITQVDKLAADIDLLKSRIESEVRRDLHVSTGEFTDLKQQLERDSVVLSLLKQLQEFSTAIEEYNCALTEKKYVTGAQRLEEAQKCLKLLKSRKCFDLKILKSLSMELTIQKQNILYHLGEEWQKLIVWKFPPSKDTSSLESYLQTELHLYTEQSHKEEKTPMPPISSVLLAFSVLGELHSKLKSFGQMLLKYILRPLASCPSLHAVIESQPNIVIIRFESIMTNLEYPSPSEVFTKIRLVLEVLQKQLLDLPLDTDLENEKTSTVPLAEMLGDMIWEDLSECLIKNCLVYSIPTNSSKLQQYEEIIQSTEEFENALKEMRFLKGDTTDLLKYARNINSHFANKKCQDVIVAARNLMTSEIHNTVKIIPDSKINVPELPTPDEDNKLEVQKVSNTQYHEVMNLEPENTLDQHSFSLPTCRISESVKKLMELAYQTLLEATTSSDQCAVQLFYSVRNIFHLFHDVVPTYHKENLQKLPQLAAIHHNNCMYIAHHLLTLGHQFRLRLAPILCDGTATFVDLVPGFRRLGTECFLAQMRAQKGELLERLSSARNFSNMDDEENYSAASKAVRQVLHQLKRLGIVWQDVLPVNIYCKAMGTLLNTAISEVIGKITALEDISTEDGDRLYSLCKTVMDEGPQVFAPLSEESKNKKYQEEVPVYVPKWMPFKELMMMLQASLQEIGDRWADGKGPLAAAFSSSEVKALIRALFQNTERRAAALAKIK
B3: hZW10 SE79AA (natural protein, human, UniProt O43264 1-779, looked up)
chain: MASFVTEVLAHSGRLEKEDLGTRISRLTRRVEEIKGEVCNMISKKYSEFLPSMQSAQGLITQVDKLSEDIDLLKSRIEAAVRRDLHVSTGEFTDLKQQLERDSVVLSLLKQLQEFSTAIEEYNCALTEKKYVTGAQRLEEAQKCLKLLKSRKCFDLKILKSLSMELTIQKQNILYHLGEEWQKLIVWKFPPSKDTSSLESYLQTELHLYTEQSHKEEKTPMPPISSVLLAFSVLGELHSKLKSFGQMLLKYILRPLASCPSLHAVIESQPNIVIIRFESIMTNLEYPSPSEVFTKIRLVLEVLQKQLLDLPLDTDLENEKTSTVPLAEMLGDMIWEDLSECLIKNCLVYSIPTNSSKLQQYEEIIQSTEEFENALKEMRFLKGDTTDLLKYARNINSHFANKKCQDVIVAARNLMTSEIHNTVKIIPDSKINVPELPTPDEDNKLEVQKVSNTQYHEVMNLEPENTLDQHSFSLPTCRISESVKKLMELAYQTLLEATTSSDQCAVQLFYSVRNIFHLFHDVVPTYHKENLQKLPQLAAIHHNNCMYIAHHLLTLGHQFRLRLAPILCDGTATFVDLVPGFRRLGTECFLAQMRAQKGELLERLSSARNFSNMDDEENYSAASKAVRQVLHQLKRLGIVWQDVLPVNIYCKAMGTLLNTAISEVIGKITALEDISTEDGDRLYSLCKTVMDEGPQVFAPLSEESKNKKYQEEVPVYVPKWMPFKELMMMLQASLQEIGDRWADGKGPLAAAFSSSEVKALIRALFQNTERRAAALAKIK
B4: hZW10 S55A (natural protein, human, UniProt O43264 1-779, looked up)
chain: MASFVTEVLAHSGRLEKEDLGTRISRLTRRVEEIKGEVCNMISKKYSEFLPSMQAAQGLITQVDKLSEDIDLLKSRIESEVRRDLHVSTGEFTDLKQQLERDSVVLSLLKQLQEFSTAIEEYNCALTEKKYVTGAQRLEEAQKCLKLLKSRKCFDLKILKSLSMELTIQKQNILYHLGEEWQKLIVWKFPPSKDTSSLESYLQTELHLYTEQSHKEEKTPMPPISSVLLAFSVLGELHSKLKSFGQMLLKYILRPLASCPSLHAVIESQPNIVIIRFESIMTNLEYPSPSEVFTKIRLVLEVLQKQLLDLPLDTDLENEKTSTVPLAEMLGDMIWEDLSECLIKNCLVYSIPTNSSKLQQYEEIIQSTEEFENALKEMRFLKGDTTDLLKYARNINSHFANKKCQDVIVAARNLMTSEIHNTVKIIPDSKINVPELPTPDEDNKLEVQKVSNTQYHEVMNLEPENTLDQHSFSLPTCRISESVKKLMELAYQTLLEATTSSDQCAVQLFYSVRNIFHLFHDVVPTYHKENLQKLPQLAAIHHNNCMYIAHHLLTLGHQFRLRLAPILCDGTATFVDLVPGFRRLGTECFLAQMRAQKGELLERLSSARNFSNMDDEENYSAASKAVRQVLHQLKRLGIVWQDVLPVNIYCKAMGTLLNTAISEVIGKITALEDISTEDGDRLYSLCKTVMDEGPQVFAPLSEESKNKKYQEEVPVYVPKWMPFKELMMMLQASLQEIGDRWADGKGPLAAAFSSSEVKALIRALFQNTERRAAALAKIK
B5: hZW10 GLI58AAA (natural protein, human, UniProt O43264 1-779, looked up)
chain: MASFVTEVLAHSGRLEKEDLGTRISRLTRRVEEIKGEVCNMISKKYSEFLPSMQSAQAAATQVDKLSEDIDLLKSRIESEVRRDLHVSTGEFTDLKQQLERDSVVLSLLKQLQEFSTAIEEYNCALTEKKYVTGAQRLEEAQKCLKLLKSRKCFDLKILKSLSMELTIQKQNILYHLGEEWQKLIVWKFPPSKDTSSLESYLQTELHLYTEQSHKEEKTPMPPISSVLLAFSVLGELHSKLKSFGQMLLKYILRPLASCPSLHAVIESQPNIVIIRFESIMTNLEYPSPSEVFTKIRLVLEVLQKQLLDLPLDTDLENEKTSTVPLAEMLGDMIWEDLSECLIKNCLVYSIPTNSSKLQQYEEIIQSTEEFENALKEMRFLKGDTTDLLKYARNINSHFANKKCQDVIVAARNLMTSEIHNTVKIIPDSKINVPELPTPDEDNKLEVQKVSNTQYHEVMNLEPENTLDQHSFSLPTCRISESVKKLMELAYQTLLEATTSSDQCAVQLFYSVRNIFHLFHDVVPTYHKENLQKLPQLAAIHHNNCMYIAHHLLTLGHQFRLRLAPILCDGTATFVDLVPGFRRLGTECFLAQMRAQKGELLERLSSARNFSNMDDEENYSAASKAVRQVLHQLKRLGIVWQDVLPVNIYCKAMGTLLNTAISEVIGKITALEDISTEDGDRLYSLCKTVMDEGPQVFAPLSEESKNKKYQEEVPVYVPKWMPFKELMMMLQASLQEIGDRWADGKGPLAAAFSSSEVKALIRALFQNTERRAAALAKIK

In the assay the target is T1, hZwint-1. As to the kind of experiment: two-hybrid.
B1 yielded a β-galactosidase assay of 1.2.
The molecule B2 returned a β-galactosidase assay of 1.8.
Regarding B3, the β-galactosidase assay turned out to be 131.
On to B4, for which the β-galactosidase assay stood at 449.
B5 displayed a β-galactosidase assay of 2.7.

(Values after PMC2234252 (The Journal of Cell Biology, 2008).)
